Measurements reported in patent US20200095340A1.
Substitutions are numbered along the chain they refer to. Names and notes keep the numbering of the source.

B1: anti-DLL3 trispecific protein, DLL3 binder 3A011 (protein, part only; not given: anti-CD3 fragment and anti-albumin domain, part only)
chain, part: EVQLVESGGGLVQPGGSLTLSCAASGSSVSFLSLAWYRQAPGKKRELVAGISTDGSTDYIDSVKGRFTISRDNAKNSVYLQMNSLRAEDTAVYYCYAYRWRTRYTYWGQGTLVTVSSGGGGSGGGSGGGGSGGGSHHHHHH
B2: anti-DLL3 trispecific protein, DLL3 binder 4D09 (protein, part only; not given: anti-CD3 fragment and anti-albumin domain, part only)
chain, part: B1 chain, part with S30K, L34M, T53A, D61L, R99E, R101T
B3: anti-DLL3 trispecific protein, DLL3 binder 3A02 (protein, part only; not given: CD3 binder and albumin binder, part only)
chain, part: B1 chain, part with T53A, D58A
B4: anti-DLL3 trispecific protein, DLL3 binder 3C04 (protein, part only; not given: CD3 binder and albumin binder, part only)
chain, part: B1 chain, part with S28H, L34M, T53A, S56P, R101D
B5: anti-DLL3 trispecific protein, DLL3 binder 4H011 (protein, part only; not given: CD3 fragment and albumin sdAb, part only)
chain, part: B1 chain, part with F31R, L34M, T53V, R101T, Y104L
B6: anti-DLL3 trispecific protein, DLL3 binder 2E02 (protein, part only; not given: anti-CD3 fragment and anti-albumin domain, part only)
chain, part: EVQLVESGGGLVQPGGSLTLSCVASGSTSAINAMGWYRRAPGKQRELVAGISSDGSKVYVDSVKGRFTISRDNAKNSVYLQMNSLRAEDTAVYYCYYFRTVSGSSQRYWGQGTLVTVSSGGGGSGGGSGGGGSGGGSHHHHHH
B7: anti-DLL3 trispecific protein, DLL3 binder 2E05 (protein, part only; not given: CD3 binder and albumin binder, part only)
chain, part: B6 chain, part with T28P, A30S, M34Y, V60S, Q106M, R107S
B8: anti-DLL3 trispecific protein, DLL3 binder 2H02 (protein, part only; not given: anti-CD3 fragment and anti-albumin domain, part only)
chain, part: B6 chain, part with A30S, G35A, V48A, V60A, R99H, Q106M
B9: anti-DLL3 trispecific protein, DLL3 binder 1A011 (protein, part only; not given: anti-CD3 fragment and anti-albumin domain, part only)
chain, part: B6 chain, part with A30S, M34I, V60I, Q106Y
B10: anti-DLL3 trispecific protein, DLL3 binder 1H012 (protein, part only; not given: CD3 binder and albumin binder, part only)
chain, part: B6 chain, part with A30S, Q106M, R107P
B11: anti-DLL3 trispecific protein containing 4D09-M34L (protein, part only; not given: anti-CD3 fragment and anti-albumin sdAb, part only)
chain, part: B1 chain, part with S30K, T53A, D61L, R99E, R101T
B12: anti-DLL3 trispecific protein containing 2E05-M106Q (protein, part only; not given: CD3 binder and albumin binder, part only)
chain, part: B6 chain, part with T28P, A30S, M34Y, V60S, R107S
B13: anti-DLL3 trispecific protein, DLL3 binder 4D09-M34L (protein, part only; not given: anti-CD3 fragment and anti-albumin sdAb, part only)
chain, part: B1 chain, part with S30K, T53A, D61L, R99E, R101T
B14: anti-DLL3 trispecific protein, DLL3 binder 3H06 (protein, part only; not given: CD3 fragment and albumin sdAb, part only)
chain, part: B1 chain, part with F31Q, L34M, T53A, I60F, R101T, Y104G
B15: anti-DLL3 trispecific protein, DLL3 binder 4B07 (protein, part only; not given: anti-CD3 fragment and anti-albumin sdAb, part only)
chain, part: B1 chain, part with S30G, L34M, T53A, D58V, R101T
B16: anti-DLL3 trispecific protein, DLL3 binder 3D07 (protein, part only; not given: anti-CD3 and anti-albumin domains, part only)
chain, part: B1 chain, part with S30R, L34M, T53A, R99S, R101T
B17: anti-DLL3 trispecific protein, DLL3 binder 4H04 (protein, part only; not given: anti-CD3 fragment and anti-albumin sdAb, part only)
chain, part: B1 chain, part with S30K, L34M, I51V, T53A, R99E, R101T
B18: anti-DLL3 trispecific protein, DLL3 binder 4C06 (protein, part only; not given: anti-CD3 fragment and anti-albumin sdAb, part only)
chain, part: B1 chain, part with G26N, F31K, L34M, T53A, D58A, R101S
B19: anti-DLL3 trispecific protein, DLL3 binder 3H011 (protein, part only; not given: CD3 binder and albumin binder, part only)
chain, part: B1 chain, part with S30K, L34M, T53A, D58V, R101P
B20: anti-DLL3 trispecific protein, DLL3 binder 2A04 (protein, part only; not given: CD3 binder and albumin binder, part only)
chain, part: B6 chain, part with A30S, G35A, V60T, V101T, Q106M
B21: anti-DLL3 trispecific protein, DLL3 binder 2C04 (protein, part only; not given: CD3 fragment and albumin sdAb, part only)
chain, part: B6 chain, part with A30S, I31R, V58L, V60A, S102L, Q106M
B22: anti-DLL3 trispecific protein, DLL3 binder 1C03 (protein, part only; not given: CD3 fragment and albumin sdAb, part only)
chain, part: B6 chain, part with A30S, G35A, G55N, V60A, S102G, Q106M
B23: anti-DLL3 trispecific protein, DLL3 binder 2E011 (protein, part only; not given: anti-CD3 fragment and anti-albumin sdAb, part only)
chain, part: B6 chain, part with A30S, M34I, K57S, V60A, T100R, Q106M
B24: anti-DLL3 trispecific protein, DLL3 binder 2E05-M106Q (protein, part only; not given: CD3 binder and albumin binder, part only)
chain, part: B6 chain, part with T28P, A30S, M34Y, V60S, R107S
B25: anti-DLL3 trispecific protein, DLL3 binder 2E05-M106Y (protein, part only; not given: CD3 binder and albumin binder, part only)
chain, part: B6 chain, part with T28P, A30S, M34Y, V60S, Q106Y, R107S

Each binder was assayed against cynomolgus DLL3 protein (cynomolgus) (assay: Octet, single concentration of trispecific (60 nM), cynomolgus DLL3).
Chain of cynomolgus DLL3 protein (cynomolgus) (chain, as listed by the source): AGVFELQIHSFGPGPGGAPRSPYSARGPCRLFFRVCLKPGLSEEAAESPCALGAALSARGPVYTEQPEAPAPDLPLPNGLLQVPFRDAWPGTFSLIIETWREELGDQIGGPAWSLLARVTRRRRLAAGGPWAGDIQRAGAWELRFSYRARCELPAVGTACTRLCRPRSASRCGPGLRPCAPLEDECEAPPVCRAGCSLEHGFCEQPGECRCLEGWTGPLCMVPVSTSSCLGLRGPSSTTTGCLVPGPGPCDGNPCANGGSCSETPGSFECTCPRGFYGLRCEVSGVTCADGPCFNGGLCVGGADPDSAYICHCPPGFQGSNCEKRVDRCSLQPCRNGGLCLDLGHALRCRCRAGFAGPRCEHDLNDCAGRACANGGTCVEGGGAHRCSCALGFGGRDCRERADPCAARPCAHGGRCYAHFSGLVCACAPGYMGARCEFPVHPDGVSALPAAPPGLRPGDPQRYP

Kd	Binder
8.8 nM	B1
8.2 nM	B2
9.5 nM	B3
5.7 nM	B4
5.7 nM	B5
3.4 nM	B6
4.8 nM	B7
5.2 nM	B8
3.6 nM	B9
4.3 nM	B10

These binders were tested against human DLL3 on DLL3 expressing cancer cell lines (human) (UniProt Q9NYJ7) (assay: cell-based or functional assay).
Chain of human DLL3 on DLL3 expressing cancer cell lines (human) (Q9NYJ7 27-618 limits assumed): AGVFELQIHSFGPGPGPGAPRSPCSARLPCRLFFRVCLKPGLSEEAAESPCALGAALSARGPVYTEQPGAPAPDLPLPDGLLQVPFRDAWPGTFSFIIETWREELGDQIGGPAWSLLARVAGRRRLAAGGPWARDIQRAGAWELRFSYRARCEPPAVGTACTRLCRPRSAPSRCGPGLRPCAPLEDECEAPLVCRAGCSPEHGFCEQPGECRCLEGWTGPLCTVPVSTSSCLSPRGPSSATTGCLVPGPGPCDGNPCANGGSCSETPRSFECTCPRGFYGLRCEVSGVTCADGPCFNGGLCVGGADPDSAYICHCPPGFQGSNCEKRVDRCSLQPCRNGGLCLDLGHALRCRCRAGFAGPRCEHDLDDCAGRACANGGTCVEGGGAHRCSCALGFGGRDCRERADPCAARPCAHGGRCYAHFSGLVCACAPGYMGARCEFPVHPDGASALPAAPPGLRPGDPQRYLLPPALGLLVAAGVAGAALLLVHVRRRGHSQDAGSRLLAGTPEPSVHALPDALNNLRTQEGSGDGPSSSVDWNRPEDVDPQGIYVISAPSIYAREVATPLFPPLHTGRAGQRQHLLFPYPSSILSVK

TDCC EC50, DMS-153 cells, purified CHO protein	fold more potent in TDCC than DH6	fold more potent in TDCC than DH43	Binder
54 nM	4.4 fold	–	B11
41 nM	–	6.6 fold	B12

What follows are binders tested against human DLL3 on DMS-153 cells (human) (UniProt Q9NYJ7) (assay: cell-based or functional assay).
Chain of human DLL3 on DMS-153 cells (human) (Q9NYJ7 27-618 limits assumed): as above

TDCC EC50 (CHO expressed, purified protein; method of Example 2, DMS-153 cells)	DMS-153 TDCC EC50 (conditioned medium, human T cells)	Binder
0.054 nM	–	B13
–	0.12 nM	B14
0.06 nM	0.052 nM	B2
–	0.067 nM	B15
–	0.061 nM	B16
–	0.052 nM	B4
–	0.036 nM	B5
–	0.051 nM	B17
–	0.068 nM	B18
–	0.12 nM	B19
0.12 nM	0.059 nM	B6
–	0.081 nM	B20
0.072 nM	0.033 nM	B7
0.096 nM	0.031 nM	B8
0.17 nM	0.051 nM	B9
0.043 nM	–	B21
–	0.096 nM	B22
0.063 nM	0.028 nM	B10
–	0.19 nM	B23
0.041 nM	–	B24
0.063 nM	–	B25

Each binder was assayed against biotinylated human DLL3 protein expressed as a human IgG1 fusion protein (human) (UniProt Q9NYJ7) (assay: Octet, several concentrations of trispecific (60, 20, 6.67, 2.22 nM), human DLL3).
Chain of biotinylated human DLL3 protein expressed as a human IgG1 fusion protein (human) (Q9NYJ7 27-492): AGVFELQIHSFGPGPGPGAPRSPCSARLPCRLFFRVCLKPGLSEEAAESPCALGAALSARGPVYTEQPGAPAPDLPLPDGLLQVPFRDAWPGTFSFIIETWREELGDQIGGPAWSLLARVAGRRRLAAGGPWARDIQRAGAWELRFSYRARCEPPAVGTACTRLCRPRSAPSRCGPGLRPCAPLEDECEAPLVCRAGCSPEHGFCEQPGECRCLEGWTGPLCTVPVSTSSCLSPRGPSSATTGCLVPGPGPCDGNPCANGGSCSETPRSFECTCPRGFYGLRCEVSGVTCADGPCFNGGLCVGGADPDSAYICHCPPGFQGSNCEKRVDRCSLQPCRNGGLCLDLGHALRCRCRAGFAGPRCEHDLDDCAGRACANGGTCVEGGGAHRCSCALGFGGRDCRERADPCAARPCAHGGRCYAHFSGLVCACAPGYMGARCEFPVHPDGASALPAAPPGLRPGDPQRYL

Kd	Binder
7.3 nM	B1
8.1 nM	B2
7.8 nM	B3
4 nM	B4
3.9 nM	B5
4.4 nM	B6
3.5 nM	B7
4.4 nM	B8
3.5 nM	B9
2.9 nM	B10
